This note sets out measurements from IntAct's records for PubMed 19494828.

The labels stand for the following.
B1: Caspase-9 (Homo sapiens), P55211 (parent)
chain: MDEADRRLLRRCRLRLVEELQVDQLWDALLSRELFRPHMIEDIQRAGSGSRRDQARQLIIDLETRGSQALPLFISCLEDTGQDMLASFLRTNRQAAKLSKPTLENLTPVVLRPEIRKPEVLRPETPRPVDIGSGGFGDVGALESLRGNADLAYILSMEPCGHCLIINNVNFCRESGLRTRTGSNIDCEKLRRRFSSLHFMVEVKGDLTAKKMVLALLELAQQDHGALDCCVVVILSHGCQASHLQFPGAVYGTDGCPVSVEKIVNIFNGTSCPSLGGKPKLFFIQACGGEQKDHGFEVASTSPEDESPGSNPEPDATPFQEGLRTFDQLDAISSLPTPSDIFVSYSTFPGFVSWRDPKSGSWYVETLDDIFEQWAHSEDLQSLLLRVANAVSVKGIYKQMPGCFNFLRKKLFFKTS

Variants of B1 are the subject of the assay. The note with it: with apaf_human APAF1, O14727.
Sequence of apaf_human APAF1, O14727 (O14727 whole entry): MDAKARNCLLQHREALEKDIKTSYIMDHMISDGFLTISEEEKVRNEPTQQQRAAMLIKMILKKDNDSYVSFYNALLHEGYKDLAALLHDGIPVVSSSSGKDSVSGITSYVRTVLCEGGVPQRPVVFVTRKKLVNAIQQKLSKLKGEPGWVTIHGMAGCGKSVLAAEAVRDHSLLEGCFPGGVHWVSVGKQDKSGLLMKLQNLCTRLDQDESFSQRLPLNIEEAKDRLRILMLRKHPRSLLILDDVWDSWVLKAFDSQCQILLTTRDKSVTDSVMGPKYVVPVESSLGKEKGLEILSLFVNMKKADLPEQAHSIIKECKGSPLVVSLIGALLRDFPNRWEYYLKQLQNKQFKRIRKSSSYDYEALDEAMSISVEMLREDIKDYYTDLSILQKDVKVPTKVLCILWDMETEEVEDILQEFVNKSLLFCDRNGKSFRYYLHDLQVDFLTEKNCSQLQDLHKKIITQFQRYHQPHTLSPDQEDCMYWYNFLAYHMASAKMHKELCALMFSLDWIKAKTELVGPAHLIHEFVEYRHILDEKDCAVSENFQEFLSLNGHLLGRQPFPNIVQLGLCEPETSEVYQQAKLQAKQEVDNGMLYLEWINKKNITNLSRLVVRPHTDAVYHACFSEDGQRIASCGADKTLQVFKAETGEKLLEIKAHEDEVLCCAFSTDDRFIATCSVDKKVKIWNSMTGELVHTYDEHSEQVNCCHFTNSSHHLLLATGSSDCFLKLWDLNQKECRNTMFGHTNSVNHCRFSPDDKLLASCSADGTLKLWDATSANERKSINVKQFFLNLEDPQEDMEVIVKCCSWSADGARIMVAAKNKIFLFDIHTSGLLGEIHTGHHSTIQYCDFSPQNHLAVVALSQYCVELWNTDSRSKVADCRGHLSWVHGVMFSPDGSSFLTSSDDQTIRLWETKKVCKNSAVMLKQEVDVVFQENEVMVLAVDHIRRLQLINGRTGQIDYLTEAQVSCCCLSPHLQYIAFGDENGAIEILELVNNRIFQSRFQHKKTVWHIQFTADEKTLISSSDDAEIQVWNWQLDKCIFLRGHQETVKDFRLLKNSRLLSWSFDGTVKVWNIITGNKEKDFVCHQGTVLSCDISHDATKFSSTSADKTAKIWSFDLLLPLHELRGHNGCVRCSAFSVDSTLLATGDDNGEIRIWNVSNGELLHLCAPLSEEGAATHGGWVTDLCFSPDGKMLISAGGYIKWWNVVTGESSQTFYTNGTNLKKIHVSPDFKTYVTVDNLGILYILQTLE
Regarding R56A, the “effect of a mutation on the interaction” value is reported as “disrupting interaction”.
